# Experimental data reported in the supplement of paper PMC10126150.
# ± gives the standard deviation of the averaged measurements.
# System: ATP
# Experiment: switch fluorescence ratio, 500 uM ATP over buffer (Cy3 cluster intensity, sum of 5 cycles each) (fold (ratio)); higher = stronger signal-on switching upon ATP binding; sequences stand for … in TCGTCGGCAGCGTCAGATGTGTATAAGAGACAGTTTTTTTTTTTTTTTTTTTTTTTTT…TC
# Conditions: aptamer strand: ATP DNA aptamer (quencher-CACCTGGGGGAGTATTGCGGAGGAAGG + anchor), 100 nM annealed; ATP concentration: 500 uM
# How it was run: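 Per cluster, summed Cy3 intensity from the target cycles was divided by that from the buffer cycles to give the fluorescence ratio, then averaged per switch-domain sequence. Clusters outside 100-1000 RFU were excluded. The Cy3-labelled switching-strand clusters, on a modified Illumina MiSeq flow-cell, were annealed to 100 nM quencher-labelled ATP aptamer and imaged in selection buffer, then after 15 min with 500 uM ATP at 22 °C, for five cycles with NaOH stripping and re-annealing between them.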
# 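Also: ATP exposure 15 min at 22 °C before imaging.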
row,Sequence,switch fluorescence ratio
1,GGAATGGGGT,0.997 ± 0.024
2,TAAATTATTC,1.04 ± 0.037
3,GGATAGTGTG,0.997 ± 0.014
4,TATGAAGAAG,0.994 ± 0.054
5,TCATTATGAA,0.987 ± 0.054
6,GAGGGCCTCA,1 ± 0.033
7,AGGTACGGGA,1.03 ± 0.074
8,AAACAGGGTA,0.9906 ± 0.0079
9,TTTAATGA,0.976 ± 0.011
10,CAAATGATGT,1.01 ± 0.027
11,GGGCTGTTTG,0.95379 ± 2.9e-05
12,AATTAGACGA,0.958 ± 0.034
13,TGAGAAGGGG,0.991 ± 0.041
14,ATCCTCTCGG,1.05 ± 0.017
15,TTTATCCGAG,1.04 ± 0.042
16,AGTGTGTCTT,0.9877 ± 0.004
17,ATAATTGGGA,0.99 ± 0.041
18,GGGGGGTAA,1.01 ± 0.019
19,CGGGGCAAAA,1.04 ± 0.027
20,TTTGGTTAC,1.05 ± 0.023
21,TAGGGGGGGG,1.02 ± 0.073
22,TTCGACCTAG,0.986 ± 0.014
23,CGCGTCAGCC,0.979 ± 0.073

row,Sequence,switch fluorescence ratio
1,TTCCTTTTAC,1.16 ± 0.008
2,AGGTGTCGCG,1.01 ± 0.02
3,CGACGCTTGT,3.15 ± 0.38
4,ATCGGCAGGG,0.981 ± 0.052
5,TATCTCTGGG,1.02 ± 0.014
6,TAAGATTTTA,1 ± 0.042
7,GTTGGGGTTC,0.982 ± 0.027
8,TTTGGTTCGC,0.971 ± 0.037
9,CAGTTAGACA,0.99 ± 0.081
10,GGCAGAGGCT,1.03 ± 0.031
11,TTTAATGTTG,1.014 ± 0.0082
12,TGACATGGTG,0.976 ± 0.018
13,AAGCCGCTAG,1.11 ± 0.026
14,AGGGGCCCGT,0.99 ± 0.038
15,GAGAGCTATC,0.9848 ± 0.0024
16,ATTGGGAATC,0.9923 ± 0.0027
17,CTACGCCTGG,1.66 ± 0.044
18,TTTAAATCGG,0.979 ± 0.04
19,CCAAAAGTAT,1.03 ± 0.081
20,GTGTAAGAAC,1.016 ± 0.0048
21,TTCAGCGCGA,1.14 ± 0.014
22,AAGATGATGT,0.986 ± 0.03
23,TGCTGGGATT,1.02 ± 0.044

row,Sequence,switch fluorescence ratio
1,CAGTGATTC,1.26 ± 0.35
2,GCAATTGTTT,1.02 ± 0.039
3,GGGTGCGGAG,0.956 ± 0.035
4,AAGCATAGTT,0.993 ± 0.011
5,CGGGCGCGTT,0.984 ± 0.054
6,CGGAAGTTCG,0.9774 ± 0.0048
7,ACCGCTTACG,1.56 ± 0.12
8,GAAAGGTAAG,0.9934 ± 0.0036
9,AGACCGCTTA,1.15 ± 0.036
10,ATTCCCCGGG,1.66 ± 0.68
11,CCTGCGTTTT,1.75 ± 0.32
12,CATATGGGGA,0.982 ± 0.011
13,ATGTAAATGA,0.9855 ± 0.0083
14,AAGGGTGATG,1 ± 0.049
15,GAGGGGCCTG,1.01 ± 0.083
16,GCTCGGTCGG,1.02 ± 0.037
17,CCTAATAGGG,0.9929 ± 0.0033
18,GGACATTGAC,1.08 ± 0.02
19,CGGTAAAAAG,1.01 ± 0.017
20,TAAGGGGATT,1.03 ± 0.047
21,GTTAAAGGGG,0.983 ± 0.02
22,ACCTGTATTT,1 ± 0.02
23,AAGTGGGGG,0.992 ± 0.016

row,Sequence,switch fluorescence ratio
1,TGTGCCAGGG,1.06 ± 0.024
2,TTTATCGCCG,0.974 ± 0.022
3,AGTCGAAAGC,1.01 ± 0.059
4,CCGCCTTAAT,2.21 ± 0.084
5,TTTATAAATT,0.972 ± 0.032
6,TGGGGAGCAT,1.01 ± 0.044
7,GATAGGATGG,0.9842 ± 0.0027
8,TTATTCTCAC,1.031 ± 0.0064
9,TTGTGTATCA,0.993 ± 0.035
10,GATAGGTTTC,0.977 ± 0.07
11,GGGGGATATA,1.01 ± 0.021
12,AATCTTCTAT,1.01 ± 0.024
13,ATAGAAGGGA,0.991 ± 0.044
14,TTTTGGCGAA,0.989 ± 0.015
15,GTATCTTACT,1.007 ± 0.0018
16,ACATGTGGCA,1.04 ± 0.018
17,GGTGGAGGGG,1 ± 0.0022
18,GTTGCTGTGG,0.985 ± 0.026
19,GGGGGAATGT,0.983 ± 0.026
20,TCGTGGGTGC,1.01 ± 0.023
21,TTCTCTGTAA,2.66 ± 1.6
22,GGAATTCCCG,0.98 ± 0.054
23,TGCTGGGGGG,0.981 ± 0.023

row,Sequence,switch fluorescence ratio
1,AGAACGGGGC,1.02 ± 0.023
2,GAGGGGGGGA,1 ± 0.044
3,TTTCCTGTGT,1.01 ± 0.017
4,CGGTGCTGCG,1.065 ± 0.0039
5,TAGGTGTGTA,0.984 ± 0.031
6,TTCAAGACGG,0.995 ± 0.023
7,AAAAATTTTG,1.04 ± 0.056
8,TGAGTTTTAG,0.972 ± 0.031
9,ATGGAAAAGG,0.9916 ± 0.0094
10,TATAAAACAC,1.02 ± 0.013
11,CGCCCGTAGG,1.05 ± 0.011
12,CAGATTATGT,1.01 ± 0.055
13,GGGGGTGCAG,0.975 ± 0.011
14,GATTAAAGGA,1.01 ± 0.011
15,TATGACACTT,1.03 ± 0.047
16,CCTGGATTCA,0.9888 ± 0.002
17,GGATGGGTTT,1 ± 0.016
18,GAGGAAATGG,1.024 ± 0.0046
19,CGATAGTTGT,1.27 ± 0.38
20,AGTGCGCTAT,1.03 ± 0.01
21,CTAGTTAAGG,1.011 ± 0.0048
22,CTTTATAGTT,1.02 ± 0.034
23,TATATTGGGA,0.992 ± 0.022

row,Sequence,switch fluorescence ratio
1,GGTTCAAAAC,0.997 ± 0.059
2,TTCCAAAAGG,1.02 ± 0.054
3,CGGGTGGTTG,1.04 ± 0.04
4,TTCTGCGCCC,2.52 ± 2
5,GGTGTTGGTT,1.008 ± 0.0093
6,AAGCTCGTTG,1.01 ± 0.031
7,ATTTAAAGGT,0.964 ± 0.018
8,ATGTTTATGG,0.987 ± 0.012
9,TTTGAACGTG,0.969 ± 0.017
10,TGAGCAGTTG,1.06 ± 0.12
11,ACGACTTTGT,1.02 ± 0.032
12,TAATAAAATG,0.99 ± 0.015
13,CGGTGAAGTT,0.966 ± 0.01
14,TATTGAAAAA,1.06 ± 0.048
15,CAGCTGGAGC,1 ± 0.017
16,GGGACAGGGA,1.05 ± 0.066
17,CATTGGGGGG,0.99 ± 0.038
18,CGGAAAGGGT,1.01 ± 0.027
19,TTATGTCAAA,1.01 ± 0.025
20,TATGAGCTGG,0.97 ± 0.015
21,CGCTTAATTG,1.01 ± 0.051
22,GGATGAGCGA,1.18 ± 0.19
23,AGTGCTGCGA,1.02 ± 0.044

row,Sequence,switch fluorescence ratio
1,GAAGTTACGG,1.11 ± 0.015
2,GCCGGAAGAA,1.05 ± 0.037
3,GACCACAT,1.05 ± 0.004
4,ATACTCGTTA,1.01 ± 0.024
5,AGGCCGAGGA,0.991 ± 0.018
6,TATATAAATT,0.985 ± 0.021
7,GCAGCTGGTG,1.098 ± 0.00094
8,TGGGTGTGGA,1.01 ± 0.051
9,GTGGAGGGTG,1.05 ± 0.035
10,GGGTCTGACT,0.9998 ± 0.0017
11,TGAGAGTAAC,0.946 ± 0.07
12,GACATAGTTT,1.021 ± 0.01
13,CCATGTTAAG,0.985 ± 0.02
14,TTTACAGGGA,1.027 ± 0.0086
15,GGTATAATTG,1.021 ± 0.0062
16,TTTAACCTTT,1.05 ± 0.051
17,TTGGGGTAG,1.02 ± 0.033
18,CCTCCAGGTT,3.69 ± 3.2
19,CCGCTCAGTT,1.355 ± 0.0058
